Source: paper PMC10169808, “Two legume fatty acid amide hydrolase isoforms with distinct preferences for microbial- and plant-derived acylamides” (Scientific Reports, 2023)

How the values were obtained:
[1] = biological target: Medicago truncatula fatty acid amide hydrolase 2a (MtFAAH2a) (Medicago truncatula); assay: SEC; Superdex 200 Increase 10/300 GL; buffers at pH 7.5, 0.06% DDM; mass interpolated from Kav against standards, mean elution volume of six purifications, DDM micelle (about 70 kDa) taken into account
[2] = biological target: Medicago truncatula fatty acid amide hydrolase 1 (MtFAAH1) (Medicago truncatula); assay: SEC; Superdex 200 Increase 10/300 GL; 50 mM Bis-Tris-Propane pH 9.0, 100 mM NaCl, 0.03% DDM; mass interpolated from Kav against standards, mean elution volume of six purifications, DDM micelle (about 70 kDa) taken into account
[3] = substrate: CCCCCCCCCCCC(=O)CC(=O)N[C@H]1CCOC1=O; assay: fluorescamine assay of released amine, Michaelis-Menten fit; format: biochemical, Medicago truncatula; details: 100 mM NaCl, 30 °C, apparent
[4] = substrate: CCCCCCCCCCCC(=O)NCCO; assay: as above; format: biochemical, Medicago truncatula; details: 100 mM NaCl, 30 °C, apparent
[5] = substrate: CCCCC/C=C\C=C\C(O)CCCCCCCC(=O)NCCO; assay: as above; format: biochemical, Medicago truncatula; details: 100 mM NaCl, 30 °C, apparent
[6] = substrate: CCCCC/C=C\C/C=C\CCCCCCCC(=O)NCCO; assay: as above; format: biochemical, Medicago truncatula; details: 100 mM NaCl, 30 °C, apparent
[7] = substrate: O=C(/C=C/c1ccc(O)cc1)NCCc1ccc(O)cc1; assay: as above; format: biochemical, Medicago truncatula; details: 100 mM NaCl, 30 °C, apparent
[8] = substrate: O=C(/C=C/c1ccc(O)cc1)N[C@H]1CCOC1=O; assay: as above; format: biochemical, Medicago truncatula; details: 100 mM NaCl, 30 °C, apparent
[9] = substrate: C/C=C/C=C\CC/C=C/C(=O)NCC(C)C; assay: as above; format: biochemical, Medicago truncatula; details: 100 mM NaCl, 30 °C, apparent
[10] = substrate: CCCCCCCCCC(=O)CC(=O)N[C@H]1CCOC1=O; assay: as above; format: biochemical, Medicago truncatula; details: 100 mM NaCl, 30 °C, apparent
[11] = biological target: the molecule itself; assay: SEC; AtFAAH run as reference for the MtFAAH calculations, in solution with detergent; its conditions are not told in the text (Supplementary Fig. S13)

Question: With “Medicago truncatula fatty acid amide hydrolase 2a (MtFAAH2a) (enzyme)” as the molecule, how does the stoichiometry N [1] read?
Answer: The stoichiometry N was 4.

Question: For “Medicago truncatula fatty acid amide hydrolase 1 (MtFAAH1) (enzyme)”, which stoichiometry N [2] is on record?
Answer: The stoichiometry N was 4.

B1: MtFAAH2a (Medicago truncatula) (protein)
chain: MGLFKSKRVVYKPVKDVNLGPDSTEFYLQANVKAPRMTGILVKIVAWLLECRIIGAFLLYILKGNNLIHKYITNADIEEPPLYVPLHHFEDHKEQEVKSLDLALTPPDKVQVAIDCLPTTLQRPINGTKPSFNRWTIMDYFRAYSSGDITPHMVAERFIAAVDESSKPTLQMGFFINYNVEDILRQANESTLRYQKGEPISVLDGVPVAIKDEIDCLPYPTTGGTKWLHKQRPCTDDACCIKRLRLCGAVLVGKTNMHELGAGTSGINPHYGATRNPHNASRIAGGSSSGSAAVVSAGLCPVALGVDGGGSVRMPAALCGIVGLKPTFSRIPHSGVIPLNWTVGMVGILAGTVEDSLITYAAISGEIPSRQPSSIPAKINLPLLPLTKSISKIKLAKYGKWFDDCSDDVRICCSGALNKLQGHYGWKIVDVTIPEIEVMRLAHYSTIGSECNTSLDYFQDKNLADFGWDARVALKIYGSFSSMEYIKAQKIRNRQLQFHKKIFSEADIIVSPTTGVTAYPIQDDALKTGELDYVNGAALIRYSIAGNFLGLPAVTVPVGYDKLGLPIGLQFIGRPWAEATLIHLAFAMQTICLSEYRKPAIFYDLLRTN
notes: full-length synthesized CDS (GENEWIZ) subcloned in pTrcHIS2, C-terminal c-myc and 6xHis tags, E. coli; estimated homotetramer in DDM; catalytic Ser311
Question: Which Km ([3]; pH 7.5, 25 mM HEPES, 0.06% DDM) does the source give for B1 here?
Answer: The Km was 14.6 ± 1.7 µM.

Question: And the kcat ([3]; pH 7.5, 25 mM HEPES, 0.06% DDM)?
Answer: The kcat was 0.96 s⁻¹.

Question: And the Km ([4]; pH 7.5, 25 mM HEPES, 0.06% DDM)?
Answer: The Km was 13.8 ± 1.7 µM.

Question: What about the kcat ([4]; pH 7.5, 25 mM HEPES, 0.06% DDM) of the same molecule?
Answer: The kcat was 1.26 s⁻¹.

Question: What about the Km ([5]; pH 7.5, 25 mM HEPES, 0.06% DDM) of the same molecule?
Answer: The Km was 18.7 ± 2.9 µM.

Question: And the kcat ([5]; pH 7.5, 25 mM HEPES, 0.06% DDM)?
Answer: Its kcat is 0.35 s⁻¹.

Question: What about the Km ([6]; pH 7.5, 25 mM HEPES, 0.06% DDM) of the same molecule?
Answer: Its Km is 15.1 ± 2.9 µM.

Question: And the kcat ([6]; pH 7.5, 25 mM HEPES, 0.06% DDM)?
Answer: Its kcat is 0.60 s⁻¹.

Question: What about the Km ([7]; pH 7.5, 25 mM HEPES, 0.06% DDM) of the same molecule?
Answer: The Km was 10.8 ± 1.1 µM.

Question: And the kcat ([7]; pH 7.5, 25 mM HEPES, 0.06% DDM)?
Answer: Its kcat is 1.51 s⁻¹.

Question: What about the Km ([8]; pH 7.5, 25 mM HEPES, 0.06% DDM) of the same molecule?
Answer: Its Km is 13.8 ± 1.9 µM.

Question: What about the kcat ([8]; pH 7.5, 25 mM HEPES, 0.06% DDM) of the same molecule?
Answer: Its kcat is 1.64 s⁻¹.

Question: What about the Km ([9]; pH 7.5, 25 mM HEPES, 0.06% DDM) of the same molecule?
Answer: Its Km is 7.64 ± 1.5 µM.

Question: What about the kcat ([9]; pH 7.5, 25 mM HEPES, 0.06% DDM) of the same molecule?
Answer: The kcat was 1.28 s⁻¹.

Question: And the Km ([10]; pH 7.5, 25 mM HEPES, 0.06% DDM)?
Answer: The Km was 13.2 ± 2.1 µM.

Question: And the kcat ([10]; pH 7.5, 25 mM HEPES, 0.06% DDM)?
Answer: The kcat was 1.11 s⁻¹.

B2: Arabidopsis thaliana fatty acid amide hydrolase (AtFAAH) (enzyme)
chain: MGKYQVMKRASEVDLSTVKYKAETMKAPHLTGLSFKLFVNLLEAPLIGSLIVDYLKKDNGMTKIFRNTVIPEEPMFRPEFPSQEPEHDVVIVGEDESPIDRLETALKCLPQYDPSRSLHADPVSSFRYWKIRDYAYAYRSKLTTPLQVAKRIISIIEEFGYDKPPTPFLIRFDANEVIKQAEASTRRFEQGNPISVLDGIFVTIKDDIDCLPHPTNGGTTWLHEDRSVEKDSAVVSKLRSCGAILLGKANMHELGMGTTGNNSNYGTTRNPHDPKRYTGGSSSGSAAIVAAGLCSAALGTDGGGSVRIPSALCGITGLKTTYGRTDMTGSLCEGGTVEIIGPLASSLEDAFLVYAAILGSSSADRYNLKPSPPCFPKLLSHNGSNAIGSLRLGKYTKWFNDVSSSDISDKCEDILKLLSNNHGCKVVEIVVPELEEMRAAHVISIGSPTLSSLTPYCEAGKNSKLSYDTRTSFAIFRSFSASDYIAAQCLRRRLMEYHLNIFKDVDVIVTPTTGMTAPVIPPDALKNGETNIQVTTDLMRFVLAANLLGFPAISVPVGYDKEGLPIGLQIMGRPWAEATVLGLAAAVEELAPVTKKPAIFYDILNTN
notes: AtFAAH, fatty acid amide hydrolase (a FAAH1 enzyme), Arabidopsis thaliana; also called A. thaliana FAAH; AtFAAH1; source: recombinant, purified
Question: For B2, which “stoichiometry N” value [11] is on record?
Answer: The value was 2.

B3: MtFAAH1 (Medicago truncatula) (protein)
chain: MGKKRVMVPAKDVDLSSIKYEPEIVQAPHLTGFWFRFFVRLIEAPLIGPFLLTMLKKENKIDQLLRNTVFPEEPMFKPEYPPQEKEHSVVELDEDGRPEGRVESALNCLPHYDPAKLWENSSATFRYWKIRDYAYAYQSRKVTPSMVAESIISMIEENGIDKPPTPLLLSFDAAEVRKQAAASTQRFESGNPLSILDGIFIAIKDDIDCHPHPSTGGSTWMHEVRDVKKDAVCVSRLRSCGVIFIGKTNMHEFGMGTTGNNSNYGTARNPHAPDRYTGGSSSGPAAIVASGLCSAALGTDGGGSVRIPSSLCGVVGLKINYGRTSMEGSLCDSGTVEVIGPIASTVEDAMLVYAAMLGASPANRISMKPSTPCLPTLSSDDDTDALRSLRIGIYTPWFNNVHSTEVSDKCEDALNLLSKAHGCEVVEVVIPEIVEMRTAHLVSIGSECLSSLNPDIEDGKGVKLSYDTRTSLALFQSFTAADYVAAQCIRRRIMHYFMEIFKKVDVIVTPTTGMTAPRIPPSALKSGETDMPTTGYLMRFVVPANLLGLPAISVPVGYDKEGLPIGLQVIGRPWAEATILRVAAAVEKLCGESKRRPVTYYDVLGAN
notes: full-length CDS from A17 stem cDNA; C-terminal c-myc and 6xHis tags (pTrcHIS2), E. coli BL21(DE3); estimated homotetramer in DDM; catalytic Ser304
Question: For B3, which Km ([3]; pH 9, 25 mM HEPES, 0.03% DDM) is on record?
Answer: The Km was 5.60 ± 0.6 µM.

Question: What about the kcat ([3]; pH 9, 25 mM HEPES, 0.03% DDM) of the same molecule?
Answer: Its kcat is 0.79 s⁻¹.

Question: And the Km ([4]; pH 9, 25 mM HEPES, 0.03% DDM)?
Answer: Its Km is 13.9 ± 3.6 µM.

Question: And the kcat ([4]; pH 9, 25 mM HEPES, 0.03% DDM)?
Answer: Its kcat is 0.86 s⁻¹.

Question: What about the Km ([5]; pH 9, 25 mM HEPES, 0.03% DDM) of the same molecule?
Answer: The Km was 5.00 ± 0.4 µM.

Question: And the kcat ([5]; pH 9, 25 mM HEPES, 0.03% DDM)?
Answer: Its kcat is 1.25 s⁻¹.

Question: And the Km ([6]; pH 9, 25 mM HEPES, 0.03% DDM)?
Answer: Its Km is 4.83 ± 0.6 µM.

Question: And the kcat ([6]; pH 9, 25 mM HEPES, 0.03% DDM)?
Answer: Its kcat is 1.05 s⁻¹.

Question: And the Km ([7]; pH 9, 25 mM HEPES, 0.03% DDM)?
Answer: The Km was 25.9 ± 7.0 µM.

Question: And the kcat ([7]; pH 9, 25 mM HEPES, 0.03% DDM)?
Answer: The kcat was 0.51 s⁻¹.

Question: What about the Km ([8]; pH 9, 25 mM HEPES, 0.03% DDM) of the same molecule?
Answer: The Km was 10.2 ± 2.5 µM.

Question: What about the kcat ([8]; pH 9, 25 mM HEPES, 0.03% DDM) of the same molecule?
Answer: Its kcat is 0.33 s⁻¹.

Question: And the Km ([9]; pH 9, 25 mM HEPES, 0.03% DDM)?
Answer: Its Km is 6.81 ± 2.6 µM.

Question: And the kcat ([9]; pH 9, 25 mM HEPES, 0.03% DDM)?
Answer: The kcat was 0.32 s⁻¹.

Question: And the Km ([10]; pH 9, 25 mM HEPES, 0.03% DDM)?
Answer: Its Km is 5.33 ± 0.6 µM.

Question: What about the kcat ([10]; pH 9, 25 mM HEPES, 0.03% DDM) of the same molecule?
Answer: The kcat was 0.87 s⁻¹.
